Source: article PMC10245814 (bioRxiv, 2023)

Biological target: T1, BabA^AD (residues 25 to 460 of mature BabA) (Helicobacter pylori 17875/Leb (CCUG …))
T1 chain: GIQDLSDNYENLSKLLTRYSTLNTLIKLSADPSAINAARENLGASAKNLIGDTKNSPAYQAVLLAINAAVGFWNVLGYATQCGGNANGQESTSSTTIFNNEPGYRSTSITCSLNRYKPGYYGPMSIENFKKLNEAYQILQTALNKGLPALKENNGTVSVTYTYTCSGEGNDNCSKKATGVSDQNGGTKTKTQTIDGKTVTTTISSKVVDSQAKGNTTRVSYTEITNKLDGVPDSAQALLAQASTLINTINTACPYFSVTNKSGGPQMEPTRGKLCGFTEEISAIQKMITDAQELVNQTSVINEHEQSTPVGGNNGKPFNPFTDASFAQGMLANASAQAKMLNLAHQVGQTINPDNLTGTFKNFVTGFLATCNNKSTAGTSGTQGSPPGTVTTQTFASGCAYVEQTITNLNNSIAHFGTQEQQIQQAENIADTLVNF
Assay: crystal structure

binding result: binds
B1: nanobody Nb-ER19 (VHH)
VHH: QVQLQESGGGLVQPGGSLRLSCAASGSIFSGNVMGWYRQAPGKLREWVAAITPQGVPNYADSVKGRFTISRDNAKNMLYLQMSSLKPEDTALYYCNRLPNYRSWGQGTQVTVSS
